Assays:
[1] = target: Factor D in C1q-depleted human serum (human) (UniProt P00746); experiment: cell-based or functional assay
[2] = target: recombinant human Factor D (human) (UniProt P00746); experiment: cell-based or functional assay

## Lampalizumab (Fab)
[1]
  Hemolytic Mean (rabbit erythrocyte lysis assay; Thermal control): 96
  Hemolytic Mean (rabbit erythrocyte lysis assay; Unstressed control): 81
[2]
  TR-FRET Activity (Thermal control): 103%
  TR-FRET Activity (Unstressed control): 93%

## Lampalizumab subjected to thermal stress (Fab)
[1]
  Hemolytic Mean (rabbit erythrocyte lysis assay; Thermal Stress): 102
[2]
  TR-FRET Activity (Thermal Stress): 86%

## Lampalizumab subjected to oxidation conditions (30 mM AAPH) (Fab)
[1]
  Hemolytic Mean (rabbit erythrocyte lysis assay; Oxidized, 30 mM AAPH): 82
[2]
  TR-FRET Activity (Oxidized, 30 mM AAPH): 63%

Reference: patent US20170122944A1
